# T1: 5T4-Fc (human, UniProt Q13641 32-355, limits assumed)
# T1 construct: obtained from Peter L. Stern, University of Manchester; also called h5T4-Fc; recombinant 5T4
# T1 sequence (looked up): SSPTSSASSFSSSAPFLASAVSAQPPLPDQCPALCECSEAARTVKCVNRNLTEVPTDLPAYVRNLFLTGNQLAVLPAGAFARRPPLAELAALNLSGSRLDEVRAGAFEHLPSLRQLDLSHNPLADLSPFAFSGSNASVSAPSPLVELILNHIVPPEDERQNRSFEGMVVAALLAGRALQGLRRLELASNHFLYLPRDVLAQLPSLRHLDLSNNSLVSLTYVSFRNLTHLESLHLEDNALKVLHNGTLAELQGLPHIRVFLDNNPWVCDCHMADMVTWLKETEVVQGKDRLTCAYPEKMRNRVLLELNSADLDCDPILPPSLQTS
# T2: mouse 5T4 (mouse, UniProt Q9Z0L0 32-426)
# T2 construct: whole, on cells; also called murine 5T4
# T2 sequence (looked up): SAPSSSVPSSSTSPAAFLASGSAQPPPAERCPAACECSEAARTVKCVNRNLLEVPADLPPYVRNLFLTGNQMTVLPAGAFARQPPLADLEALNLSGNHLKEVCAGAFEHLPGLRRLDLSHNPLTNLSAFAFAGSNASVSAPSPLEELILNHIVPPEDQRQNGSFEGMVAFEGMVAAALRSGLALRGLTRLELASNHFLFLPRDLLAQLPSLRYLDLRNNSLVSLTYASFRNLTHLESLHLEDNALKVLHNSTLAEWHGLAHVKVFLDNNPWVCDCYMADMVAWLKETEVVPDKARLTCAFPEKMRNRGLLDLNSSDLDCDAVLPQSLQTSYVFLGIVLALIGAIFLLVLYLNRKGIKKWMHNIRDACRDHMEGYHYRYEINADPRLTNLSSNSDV
# T3: human 5T4 on transfected cells (human, UniProt Q13641 32-420)
# T3 construct: whole, on cells; for B16 and A9 cells only a 5T4 construct is named; also called 5T4-transfected B16 cells; B16-5T4
# T3 sequence (looked up): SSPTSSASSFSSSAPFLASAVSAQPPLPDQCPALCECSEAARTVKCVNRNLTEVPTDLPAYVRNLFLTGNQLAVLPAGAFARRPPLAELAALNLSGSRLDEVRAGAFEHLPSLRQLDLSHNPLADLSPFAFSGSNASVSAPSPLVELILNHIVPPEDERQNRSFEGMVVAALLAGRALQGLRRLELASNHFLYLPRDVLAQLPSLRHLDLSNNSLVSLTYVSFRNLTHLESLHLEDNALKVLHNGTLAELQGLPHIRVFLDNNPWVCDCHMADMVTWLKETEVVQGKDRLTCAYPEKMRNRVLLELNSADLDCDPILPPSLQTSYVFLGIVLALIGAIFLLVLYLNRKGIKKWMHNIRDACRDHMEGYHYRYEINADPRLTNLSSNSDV
# Columns and labels:
# [1] = target: T1, 5T4-Fc; experiment: ELISA, plates coated with 5T4-Fc
# Procedure: ELISA was performed using a standard protocol. Plates (#655074, Greiner Bio-One GmbH, Germany) were pre-coated with 0.5 μg/ml 5T4-Fc (obtained from Peter L. Stern, University of Manchester) overnight. 5T4 antibodies were diluted from 6 to 1.5×10⁻³ μg/ml in 1:4 dilutions and added in duplicates of 50 μl to each well. Binding was detected with rabbit anti-h kappa L-chain-HRP (P0129, Dako Denmark) and the ELISA was developed with SuperSignal ELISA PICO Chemiluminescent substrate (Thermo Scientific Pierce, Rockford, Ill. USA) for 2-10 minutes and read in an automated microplate based multi-detection reader (FLUOstar OPTIMA, Netherlands).
# [2] = target: T2, mouse 5T4; experiment: flow cytometry, mouse 5T4-transfected cells
# [3] = target: T3, human 5T4 on transfected cells; experiment: flow cytometry, 5T4-transfected A9 cells
# Procedure: Analysis of 5T4 mAb binding with flow cytometry was performed using 5T4-transfected cell lines and as negative control, mock transfected cells. Three different transfected cell lines used were used for this study; B16, A9 and CHO, transfected either with a 5T4 construct or with an empty vector control construct. Cells were stained with 5T4 antibodies diluted in FACS buffer (PBS, 0.5% BSA and 0.02% NaN₃). […] Samples were analysed either on a FACSCalibur or a FACSverse (BD Biosciences, Heidelberg, Germany) and mean fluorescence intensity (MFI) determined.
# [4] = target: T4, cynomolgus 5T4 (Macaca mulatta (cynomolgus)); experiment: flow cytometry, CHO cells transfected with cynomolgus 5T4
# T4 construct: whole, on cells; stably transfected CHO cells; also called cyno5T4; cy5T4
# Procedure: The potency of 5T4 antibodies in binding to cynomolgus 5T4 was determined by flow cytometry. CHO cells were stably transfected with […] (cynomolgus) 5T4. […] Samples were analysed either on a FACSCalibur or a FACSverse (BD Biosciences, Heidelberg, Germany) and mean fluorescence intensity (MFI) determined. […] To compare the EC50 values between human and cynomolgus 5T4, the cy5T4/hu5T4 ratio was calculated from the experiment with the full dose-response.
# [5] = target: T5, human/mouse 5T4 chimera E1; experiment: flow cytometry, cells with 5T4 chimera; % positive cells over that of the best clone
# T5 construct: on stably transfected CHO cells
# Procedure: (§1) Epitope mapping was performed by investigation of loss of binding by the antibodies using a panel of human/mouse chimeric 5T4 constructs by flow cytometry. […] Two strategies were used for the epitope mapping as illustrated in FIG. 5. In one approach, seven human/mouse 5T4 chimeras were constructed based on dividing 5T4 into seven different domains (FIG. 5). By replacing each domain with the corresponding mouse sequence seven human/mouse 7 5T4 human/mouse chimeras were generated. The chimeras were generated using the human protein 5T4 sequence NP_006661.1 (reference mRNA sequence NM_006670.4) and the corresponding mouse sequence NP_035757.2 (reference mRNA sequence NM_011627.4). The human/mouse chimeric DNA constructs, as well as human and mouse wild-type 5T4, were cloned into pcDNA3.1 expression vectors. […] In the other approach, cells transfected with a human/mouse 5T4 chimera (Woods et al., 2002) was used, in which mouse sequence in amino acid 173-420 replaced the human sequence (FIG. 5). As controls human 5T4 and mouse 5T4-transfected cells were used.
# (§2) For flow cytometric analysis, cells were stained with different 5T4 antibodies diluted in FACS buffer (PBS, 0.5% BSA). […] Samples were analysed by FACSverse (BD Biosciences, Heidelberg, Germany) and % positive cells were determined. To compensate for variations in % 5T4 positive cells in the various transfected populations, binding levels were normalized within each chimera by dividing % positive cells for each clone with % positive cells for the clones resulting in the highest % positive cells (% pos cellsclonX/% positive cellsₘₐₓ). A normalized value≤0.75 was defined as mAb binding being dependent on the replaced region, whereas a normalized value≤0.25 was defined as complete dependence.
# [6] = target: T6, human/mouse 5T4 chimera E4; experiment: as above
# T6 construct: on stably transfected CHO cells
# Procedure: as §1, §2
# [7] = target: T7, human/mouse 5T4 chimera E5; experiment: as above
# T7 construct: on stably transfected CHO cells
# Procedure: as §1, §2
EC50 [1] [nM],binding result [2],Normalized EC50 (to 1628) [3],EC50 [4] [nM],normalized % positive cells [5],normalized % positive cells [6],normalized % positive cells [7],Binder
0.48,no binding,1.8 ratio to 1628,0.7,0.99,0.69,0.89,"1210/1211 (antibody, IgG1, V domains shown, 5T4 antibody) VH: not shown VL: DIQMTQSPSSLSASVGDRVTITCRASQSISSYLNWYQQKPGKAPKLLIYAASSLQSGVPSRFSGSGSGTDFTLTISSLQPEDFATYYCQQTYGYLHTFGQGTKLEIK"
0.64,no binding,2.9 ratio to 1628,1.53,0.96,0.52,0.9,"1206/1207 (antibody, V domains shown, 5T4 antibody) VH: EVQLLESGGGLVQPGGSLRLSCAASGFTFSGSSMSWVRQAPGKGLEWVSSIYYSGSGTYYADSVKGRFTISRDNSKNTLYLQMNSLRAEDTAVYYCARYGRNVHPYNLDYWGQGTLVTVSS VL: DIQMTQSPSSLSASVGDRVTITCRASQSISSYLNWYQQKPGKAPKLLIYAASSLQSGVPSRFSGSGSGTDFTLTISSLQPEDFATYYCQQGYYYLPTFGQGTKLEIK"

# Source: patent US20190161555A1 (ALLIGATOR BIOSCIENCE, published 2019)
